Paper PMC9348671, “Structural elucidation of substrate-bound aminoglycoside acetyltransferase (3)-IIIa” (PLoS ONE, 2022)

Molecular target: the molecule itself
Experiment: SEC; HiLoad Superdex 200 26/60 in 20 mM Tris pH 7.5, 150 mM NaCl; tag removed

B1: aminoglycoside acetyltransferase (3)-IIIa (enzyme)
chain: MTDLNIPHTHAHLVDAFQALGIRAGQALMLHASVKAVGAVMGGPNVILQALMDALTPDGTLMMYAGWQDIPDFIDSLPDALKAVYLEQHPPFDPATARAVRENSVLAEFLRTWPCVHRSANPEASMVAVGRQAALLTANHALDYGYGVESPLAKLVAIEGYVLMLGAPLDTITLLHHAEYLAKMRHKNVVRYPCPILRDGRKVWVTVEDYDTGDPHDDYSFEQIARDYVAQGGGTRGKVGDADAYLFAAQDLTRFAVQWLESRFGDSASYG
notes: AAC(3)-IIIa from Pseudomonas aeruginosa, GenBank CAA39184.1; gene synthesized with codons optimized for E. coli, in pET15b between NdeI and BamHI; Hexahistidine tag removed by thrombin; residues of the thrombin site and vector may be left at the N-terminus; Crystals held CoASH and an aminoglycoside (gentamicin, sisomicin or neomycin); also called AAC(3)-IIIa; iso^A; source: LOBSTR E. coli, …
B1 was tested, and the “stoichiometry N” value was 2.
